Results from IntAct's records for PubMed 16959574.

Molecular target: gsk3b_human GSK3B (UniProt P49841)
Sequence (P49841 whole entry, looked up): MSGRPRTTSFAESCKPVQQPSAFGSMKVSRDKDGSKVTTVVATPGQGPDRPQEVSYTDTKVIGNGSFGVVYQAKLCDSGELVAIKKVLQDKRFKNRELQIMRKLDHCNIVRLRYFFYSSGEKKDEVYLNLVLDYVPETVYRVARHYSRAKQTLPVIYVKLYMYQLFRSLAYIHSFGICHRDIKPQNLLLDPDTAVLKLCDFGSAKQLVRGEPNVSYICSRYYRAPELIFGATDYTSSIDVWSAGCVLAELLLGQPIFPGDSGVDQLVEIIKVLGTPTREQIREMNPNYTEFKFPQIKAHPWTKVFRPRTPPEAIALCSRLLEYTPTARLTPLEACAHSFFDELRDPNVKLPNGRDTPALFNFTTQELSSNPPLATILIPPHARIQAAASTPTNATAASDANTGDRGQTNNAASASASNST

Chain of Tuberin (Rattus norvegicus (Rat)), P49816 S1389A (P49816 whole entry S1389A): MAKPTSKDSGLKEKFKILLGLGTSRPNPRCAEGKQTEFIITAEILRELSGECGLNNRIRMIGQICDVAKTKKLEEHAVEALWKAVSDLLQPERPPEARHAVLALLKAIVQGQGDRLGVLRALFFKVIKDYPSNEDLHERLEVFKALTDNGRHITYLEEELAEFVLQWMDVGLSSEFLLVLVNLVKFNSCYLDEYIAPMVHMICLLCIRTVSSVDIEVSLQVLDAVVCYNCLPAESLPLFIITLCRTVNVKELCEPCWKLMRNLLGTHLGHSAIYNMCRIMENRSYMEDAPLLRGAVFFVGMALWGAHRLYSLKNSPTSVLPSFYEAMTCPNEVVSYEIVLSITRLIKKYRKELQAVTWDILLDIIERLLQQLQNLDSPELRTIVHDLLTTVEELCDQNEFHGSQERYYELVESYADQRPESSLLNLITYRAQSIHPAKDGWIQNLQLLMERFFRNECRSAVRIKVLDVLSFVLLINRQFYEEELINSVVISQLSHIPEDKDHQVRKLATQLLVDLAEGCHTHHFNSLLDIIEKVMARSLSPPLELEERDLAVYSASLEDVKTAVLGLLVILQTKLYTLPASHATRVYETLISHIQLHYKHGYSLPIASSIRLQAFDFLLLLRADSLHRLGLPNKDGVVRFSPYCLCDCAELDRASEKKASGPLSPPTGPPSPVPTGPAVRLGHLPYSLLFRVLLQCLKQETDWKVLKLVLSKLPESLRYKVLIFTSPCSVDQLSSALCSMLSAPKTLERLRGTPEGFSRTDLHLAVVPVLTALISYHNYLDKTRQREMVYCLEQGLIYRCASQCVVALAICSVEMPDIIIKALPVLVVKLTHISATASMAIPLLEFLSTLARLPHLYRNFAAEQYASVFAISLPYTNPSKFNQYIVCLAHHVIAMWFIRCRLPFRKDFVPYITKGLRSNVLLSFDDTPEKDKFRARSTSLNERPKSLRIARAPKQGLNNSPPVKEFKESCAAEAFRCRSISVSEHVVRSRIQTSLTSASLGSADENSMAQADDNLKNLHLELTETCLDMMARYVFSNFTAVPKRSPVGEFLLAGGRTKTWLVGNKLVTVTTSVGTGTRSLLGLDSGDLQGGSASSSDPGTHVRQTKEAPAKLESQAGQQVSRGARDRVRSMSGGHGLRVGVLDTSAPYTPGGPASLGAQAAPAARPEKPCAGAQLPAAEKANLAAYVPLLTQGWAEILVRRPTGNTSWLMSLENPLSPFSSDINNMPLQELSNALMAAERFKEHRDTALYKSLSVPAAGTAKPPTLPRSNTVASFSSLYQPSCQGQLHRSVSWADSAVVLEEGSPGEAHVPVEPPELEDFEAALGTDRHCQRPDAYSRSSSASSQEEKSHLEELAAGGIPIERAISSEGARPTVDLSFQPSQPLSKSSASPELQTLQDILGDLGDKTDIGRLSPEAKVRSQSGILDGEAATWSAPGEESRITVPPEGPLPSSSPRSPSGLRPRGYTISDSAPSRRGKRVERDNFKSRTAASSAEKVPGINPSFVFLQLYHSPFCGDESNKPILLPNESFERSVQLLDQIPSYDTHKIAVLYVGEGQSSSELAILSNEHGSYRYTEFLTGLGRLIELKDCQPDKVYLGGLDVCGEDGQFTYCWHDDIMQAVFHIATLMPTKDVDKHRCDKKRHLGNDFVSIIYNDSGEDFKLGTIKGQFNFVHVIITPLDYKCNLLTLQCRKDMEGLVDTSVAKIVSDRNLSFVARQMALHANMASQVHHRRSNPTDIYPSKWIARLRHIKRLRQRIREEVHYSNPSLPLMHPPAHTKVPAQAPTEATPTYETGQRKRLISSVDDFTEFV

Q: How did the “effect of a mutation on the interaction” value turn out when “Tuberin (Rattus norvegicus (Rat)), P49816 S1389A” was run?
A: disrupting interaction
